We go through 13 molecules from patent US20020119473, “Nucleic acid ligands to the prostate specific membrane antigen” (published 2002).

Where only a bound is given, the exact number is not on record here.

Common to all, as to conditions: tags: S-tag fusion released by enterokinase; baculovirus Sf-9 secreted
In data set [1] the target is T1, xPSM (extracellular portion of PSMA) (Homo sapiens (LNCaP cDNA), UniProt Q04609 Q04609:44-750). Description: inhibition; NAALADase assay, 8 nM substrate, 37 C. The method, then: (§1) NAAG hydrolysis was performed essentially as described in Robinson et al. (1987) J Biol Chem. 262:14498-506. LNCaP cell extracts were prepared by sonication in the presence of 50 mM Tris, pH 7.4, 0.5% Triton-X-100. Cell lysate or purified xPSM was incubated in the presence of the radiolabeled substrate N-acetyl-L-aspartyl-L-[3,4-³H]glutamate (NEN Life Science Products, Boston, Mass.) at 37° C. for 10-15 minutes. The reaction was stopped with an equal volume of ice-cold 100 mM sodium phosphate, 2 mM EDTA. Products were separated from intact substrate using anion exchange chromatography and quantitated by scintillation counting. […] In all cases less than 20% of substrate was cleaved.

The target in data set [2] is T1, xPSM (extracellular portion of PSMA). Description: inhibition; competitive NAALADase inhibition, +/-7.8 nM, 37 C. How it is done:
as §1

Data set [3] shares this target. Description: inhibition; competitive NAALADase inhibition, 37 C. How it is done: as §1
For data set [4] the target is unchanged. Put plainly: inhibition; noncompetitive NAALADase inhibition, 37 C. How it is done:
as §1

T1 sequence (Q04609 44-750, one chain of several): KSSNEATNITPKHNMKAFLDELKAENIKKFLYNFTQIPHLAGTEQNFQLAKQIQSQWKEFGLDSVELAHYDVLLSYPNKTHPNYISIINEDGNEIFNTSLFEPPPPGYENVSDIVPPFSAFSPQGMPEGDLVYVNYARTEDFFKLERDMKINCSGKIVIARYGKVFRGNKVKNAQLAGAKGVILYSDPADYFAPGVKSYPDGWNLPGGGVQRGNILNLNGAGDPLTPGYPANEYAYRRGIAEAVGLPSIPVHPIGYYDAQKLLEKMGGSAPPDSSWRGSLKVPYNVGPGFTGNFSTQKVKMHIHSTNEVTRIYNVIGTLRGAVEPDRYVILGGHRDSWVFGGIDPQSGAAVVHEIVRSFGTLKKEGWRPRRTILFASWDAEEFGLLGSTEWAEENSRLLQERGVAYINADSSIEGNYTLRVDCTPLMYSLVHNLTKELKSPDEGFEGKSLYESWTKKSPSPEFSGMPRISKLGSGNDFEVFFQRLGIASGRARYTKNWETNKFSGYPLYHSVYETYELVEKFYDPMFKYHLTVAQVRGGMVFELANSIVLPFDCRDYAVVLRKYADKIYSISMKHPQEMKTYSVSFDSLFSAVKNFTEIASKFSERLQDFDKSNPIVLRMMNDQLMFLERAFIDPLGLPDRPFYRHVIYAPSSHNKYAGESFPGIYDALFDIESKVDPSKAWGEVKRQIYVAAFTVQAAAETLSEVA

B1: xPSM1.A10-3 (ssRNA)
RNA: GGGAGGACGAUGCGGAUCAGCCAUGUUUACGUCACUCCUUGUCAAUCCUCAUCGGC
modifications: 2'-F all pyrimidines; purines 2'-OH
As a reminder, the IC50 is the midpoint of a concentration-inhibition curve. The term Ki denotes the equilibrium dissociation constant of an inhibitor or competing ligand from its target. For B1, the IC50 in data set [1] worked out at 50 nM. In data set [2], the inhibition constant (Ki) was 20.5 nM.

B2: xPSM1.A9-5 (ssRNA)
RNA: GGGAGGACGAUGCGGACCGAAAAAGACCUGACUUCUAUACUAAGU
modifications: 2'-F all pyrimidines; purines 2'-OH
For B2, in data set [1], the IC50 is above 300 nM.

B3: xPSM1.A10-1 (ssRNA)
RNA: GGGAGGACGAUGCGGAUCAGCCAUGUUUACGUCACUCCUUGUCAAUCCUCAUCGGCAGACGACUCG
modifications: 2'-F all pyrimidines; purines 2'-OH
Regarding B3, the IC50 in data set [1] turned out to be 40 nM.

B4: xPSM1.A10-4 (ssRNA)
RNA: GGGAGGACGAUGCGGAUCAGCCAUGUUUACGUCACUCCUUGUCAAUCCUCA
modifications: 2'-F all pyrimidines; purines 2'-OH
In the case of B4, the IC50 in data set [1] was above 700 nM.

B5: xPSM1.A10-6 (ssRNA)
RNA: GGGAGGACGAUGCGGAUCAGCCAUGUUUACGUCACUCCUUG
modifications: 2'-F all pyrimidines; purines 2'-OH
Take B5: the IC50 in data set [1] was above 700 nM.

B6: xPSM1.A10-5 (ssRNA)
RNA: GGGAGGACGAUGCGGAUCAGCCAUGUUUACGUCACUCCUUGUCAAU
modifications: 2'-F all pyrimidines; purines 2'-OH
For B6, in data set [1], the IC50 is above 700 nM.

B7: xPSM1.A9-6 (ssRNA)
RNA: GGGAGGACGAUGCGGACCGAAAAAGACCUGACUUCUAUAC
modifications: 2'-F all pyrimidines; purines 2'-OH
For B7, in data set [1], the IC50 is above 300 nM.

B8: xPSM1.A9-3 (ssRNA)
RNA: GGGAGGACGAUGCGGACCGAAAAAGACCUGACUUCUAUACUAAGUCUACGUUCCC
modifications: 2'-F all pyrimidines; purines 2'-OH
With B8, the IC50 in data set [1] is above 300 nM.

B9: xPSM-A10 (62-A10) (ssRNA)
RNA: GGGAGGACGAUGCGGAUCAGCCAUGUUUACGUCACUCCUUGUCAAUCCUCAUCGGCAGACGACUCGCCCGA
modifications: 2'-F all pyrimidines; purines 2'-OH
Consider B9, for which the IC50 in data set [1] stood at 80 nM. For the same molecule, the Ki in data set [3] is 11.9 nM.

B10: xPSM1.A9-4 (ssRNA)
RNA: GGGAGGACGAUGCGGACCGAAAAAGACCUGACUUCUAUACUAAGUCUACG
modifications: 2'-F all pyrimidines; purines 2'-OH
Regarding B10, the IC50 in data set [1] is above 300 nM.

B11: xPSM-A9 (ssRNA)
RNA: GGGAGGACGAUGCGGACCGAAAAAGACCUGACUUCUAUACUAAGUCUACGUUCCCAGACGACUCGCCCGA
modifications: 2'-F all pyrimidines; purines 2'-OH
With B11, the Ki in data set [4] is 1.1 nM. Besides, the IC50 in data set [1] is 5 nM.

B12: xPSM1.A9-1 (ssRNA)
RNA: GGGAGGACGAUGCGGACCGAAAAAGACCUGACUUCUAUACUAAGUCUACGUUCCCAGACGACUCG
modifications: 2'-F all pyrimidines; purines 2'-OH
Consider B12, for which the IC50 in data set [1] was 8 nM.

B13: xPSM1.A9-2 (ssRNA)
RNA: GGGAGGACGAUGCGGACCGAAAAAGACCUGACUUCUAUACUAAGUCUACGUUCCCAGACG
modifications: 2'-F all pyrimidines; purines 2'-OH
For B13, the IC50 in data set [1] amounted to 300 nM.
